Experimental data: patent publication US20250026849A1 (ARCELLX, published 2025)
Where a chain is given by its changes, count along the chain named.

T1: CD123 (Homo sapiens (Human), UniProt P26951 19-305, limits assumed)
T1 construct: also called CD123-Signal
T1 sequence: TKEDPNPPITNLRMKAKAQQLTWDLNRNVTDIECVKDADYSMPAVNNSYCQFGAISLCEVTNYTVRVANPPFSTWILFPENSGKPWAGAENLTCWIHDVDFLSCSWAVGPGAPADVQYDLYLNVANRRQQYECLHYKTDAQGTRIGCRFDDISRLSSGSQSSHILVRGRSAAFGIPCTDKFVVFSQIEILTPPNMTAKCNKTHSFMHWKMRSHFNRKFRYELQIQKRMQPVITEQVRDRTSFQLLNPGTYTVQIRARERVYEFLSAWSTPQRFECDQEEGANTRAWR

B1: D domain SEQ ID NO: 689 (designed binder)
chain: MGSWEEFEQRLWAIDDRLWALGGSEAELAFFEYEIAEFEMDLQWYKGKGNPEVEALFYEAHAINEELWAYRHN
B2: D domain SEQ ID NO: 695 (designed binder)
chain: MGSWFEFLYRLDAIEDRLWALGGSEAELAEFEQEIAKFESELQSYKGKGNPEVEALEWEAHAIDMELEAYRHN
B3: D domain SEQ ID NO: 700 (designed binder)
chain: MGSWEEFDDRLDAIEHRLWALGGSEAELADFEGSIAAFESWLQVYKGKGNPEVEALEAEAEAIADELWAYRHN
B4: D domain SEQ ID NO: 687 (designed binder)
chain: MGSWREFHDRLFAIDGRLWALGGSEAELANFEWDIADFEFELQDYKGKGNPEVEALSWEADAIMQELGAYRHN
B5: D domain SEQ ID NO: 696 (designed binder)
chain: MGSWLEFEDRLVAIDHRLFALGGSEAELAEFEEEIALFESYLQDYKGKGNPEVEALNWEADAIHAELYAYRHN
B6: D domain SEQ ID NO: 692 (designed binder)
chain: MGSWDEFDTRLDAIFSRLYALGGSEAELAMFEGEIAEFEGSLQHYKGKGNPEVEALDFEAHAIDEELWAYRHN
B7: D domain SEQ ID NO: 694 (designed binder)
chain: MGSWYEFFDRLDAIYDRLYALGGSEAELASFEAQIAEFEVELQSYKGKGNPEVEALEWEAWAIDEELYAYRHN
B8: D domain SEQ ID NO: 698 (designed binder)
chain: MGSWYEFEDRLDAILYRLLALGGSEAELAWFERDIAFFESELQWYKGKGNPEVEALEWEAMAIDDELFAYRHN
B9: D domain SEQ ID NO: 705 (designed binder)
chain: MGSWDEFWDRLDAIEDRLFALGGSEAELADFERVIAWFENDLQEYKGKGNPEVEALDNEADAIRIELHAYRHN
B10: D domain SEQ ID NO: 701 (designed binder)
chain: MGSWYEFADRLDAIMDRLVALGGSEAELAYFEWEIAAFEEFLQMYKGKGNPEVEALDEEAEAIKDELMAYRHN
B11: D domain SEQ ID NO: 704 (designed binder)
chain: MGSWDEFSERLDAIWGRLEALGGSEAELATFEFHIAEFEHELQYYKGKGNPEVEALQGEAAAIINELYAYRHN
B12: D domain SEQ ID NO: 706 (designed binder)
chain: MGSWDEFDDRLEAIVDRLFALGGSEAELAMFEFEIAQFEHQLQYYKGKGNPEVEALRDEADAIWIELDAYRHN
B13: D domain SEQ ID NO: 691 (designed binder)
chain: MGSWVEFEYRLDAISDRLWALGGSEAELAFFENEIASFESDLQFYKGKGNPEVEALMFEAEAIDDELHAYRHN
B14: D domain SEQ ID NO: 690 (designed binder)
chain: MGSWDEFHQRLAAIGDRLWALGGSEAELAYFEWEIATFEWDLQVYKGKGNPEVEALYFEATAIDEELMAYRHN
B15: D domain SEQ ID NO: 685 (designed binder)
chain: MGSWVEFYNRLDAIENRLWALGGSEAELAFFEELIAQFEFALQDYKGKGNPEVEALEDEADAIWEELMAYRHN
B16: D domain SEQ ID NO: 703 (designed binder)
chain: MGSWYEFDARLDAIEERLYALGGSEAELAAFEFEIAGFEEALQWYKGKGNPEVEALLKEAEAITDELYAYRHN
B17: D domain SEQ ID NO: 702 (designed binder)
chain: MGSWNEFWERLDAIEWRLFALGGSEAELAFFELDIAWFEEELQWYKGKGNPEVEALIFEAHAITLELDAYRHN
B18: D domain SEQ ID NO: 697 (designed binder)
chain: MGSWYEFESRLDAIVDRLWALGGSEAELAEFEYEIAKFEWELQDYKGKGNPEVEALNWEAGAIEFELYAYRHN
B19: D domain SEQ ID NO: 708 (designed binder)
chain: MGSWFEFEWRLDAIENRLNALGGSEAELAWFEYHIAAFEDSLQHYKGKGNPEVEALEWEAHAIQSELQAYRHN
B20: D domain SEQ ID NO: 686 (designed binder)
chain: MGSWEEFYYRLHAIDNRLWALGGSEAELAYFEWHIADFELELQDYKGKGNPEVEALSEEATAIFEELWAYRHN
B21: D domain SEQ ID NO: 699 (designed binder)
chain: MGSWGEFMDRLEAIDYRLWALGGSEAELAWFESDIAEFEQELQMYKGKGNPEVEALWDEAMAIRDELFAYRHN
B22: D domain SEQ ID NO: 745 (designed binder)
chain: MGSWIEFEDRLYAIEDRLWALGGSEAELAAFEKEIAAFESELQAYKGKGNPEVEFLRYEAAEIRYWLQAYRHN
B23: D domain SEQ ID NO: 742 (designed binder)
chain: B22 chain with D9S, Y12W, W19L, Y58L, E62D, Y65E, W66D
B24: D domain SEQ ID NO: 726 (designed binder)
chain: MGSWVEFEYRLDAITERLLALGGSEAELAAFEKEIAAFESELQAYKGKGNPEVEILREEAAFIRQWLQAYRHN
B25: D domain SEQ ID NO: 723 (designed binder)
chain: B22 chain with I5Y, E8M, D9V, Y12D, D16E, W19F, Y58E, E62S, W66H
B26: D domain SEQ ID NO: 712 (designed binder)
chain: MGSWTEFDRRLDAIWDRLFALGGSEAELAAFEKEIAAFESELQAYKGKGNPEVEWLREEAADIRDYLQAYRHN
B27: D domain SEQ ID NO: 717 (designed binder)
chain: B22 chain with I5T, E8V, D9W, Y12D, D16W, W19E, Y58E, Y65D
B28: D domain SEQ ID NO: 729 (designed binder)
chain: B24 chain with V5W, Y9S, T15F, E16M, L19T, I55D, E59D, Q65E, W66F
B29: D domain SEQ ID NO: 714 (designed binder)
chain: B22 chain with I5E, E8H, Y12M, D16T, F55W, E62D, Y65D, W66Y
B30: D domain SEQ ID NO: 741 (designed binder)
chain: B22 chain with I5T, D9W, W19M, Y58D, E62D, Y65Q, W66Y
B31: D domain SEQ ID NO: 715 (designed binder)
chain: B22 chain with I5V, E8R, Y12D, D16T, F55W, Y65M, W66V
B32: D domain SEQ ID NO: 719 (designed binder)
chain: B22 chain with I5Y, E8Y, Y12D, D16W, F55W, Y58D, E62Q, Y65D, W66F
B33: D domain SEQ ID NO: 711 (designed binder)
chain: B26 chain with T5I, D8E, R9V, W55Y, E58D, D65Q, Y66S
B34: D domain SEQ ID NO: 738 (designed binder)
chain: B22 chain with I5V, E8W, Y12W, F55H, Y58H, E59Y, E62D, Y65V
B35: D domain SEQ ID NO: 721 (designed binder)
chain: B22 chain with I5F, E8V, Y12T, E15Q, D16V, F55Y, Y58E, E62L, W66S
B36: D domain SEQ ID NO: 740 (designed binder)
chain: B22 chain with I5Y, D9E, W19Y, Y58Q, E62D, Y65L, W66M
B37: D domain SEQ ID NO: 727 (designed binder)
chain: B26 chain with T5W, D8L, R9D, W15E, D16M, W55Y, D62L, D65N, Y66M
B38: D domain SEQ ID NO: 720 (designed binder)
chain: B26 chain with T5V, D8Y, R9D, W15E, D16H, F19D, E58D, D62F, Y66M
B39: D domain SEQ ID NO: 739 (designed binder)
chain: B22 chain with I5Y, E8A, Y12W, E59Y, E62D, Y65W, W66V
B40: D domain SEQ ID NO: 716 (designed binder)
chain: B22 chain with I5M, E8I, Y12D, D16H, Y58E, Y65M, W66Y
B41: D domain SEQ ID NO: 713 (designed binder)
chain: B26 chain with R9M, W55E, D62T, D65G, Y66V
B42: D domain SEQ ID NO: 722 (designed binder)
chain: B26 chain with T5F, D8L, R9D, W15E, D16E, F19W, D62V, Y66S
B43: D domain SEQ ID NO: 728 (designed binder)
chain: B22 chain with I5W, Y12D, D16Y, W19F, Y58E, E62F, Y65I, W66F
B44: D domain SEQ ID NO: 709 (designed binder)
chain: B26 chain with T5Y, R9D, D12E, F19G, E59T, D65A, Y66E
B45: D domain SEQ ID NO: 718 (designed binder)
chain: B22 chain with I5V, E8Y, D16V, W19L, Y58Q, Y65D
B46: D domain SEQ ID NO: 707 (designed binder)
chain: MGSWEEFTIRLGAIYWRLFALGGSEAELANFEWFIAEFEYELQPYKGKGNPEVEALVIEANAIDGELQAYRHN
B47: D domain SEQ ID NO: 688 (designed binder)
chain: MGSWEEFDERLWAISDRLWALGGSEAELAYFEGEIAYFEQNLQTYKGKGNPEVEALQTEALAIDTELWAYRHN
B48: D domain SEQ ID NO: 693 (designed binder)
chain: MGSWHEFDDRLDAIMSRLDALGGSEAELATFEAEIATFEFVLQLYKGKGNPEVEALLAEAYAIDWELEAYRHN

biological target: T1, CD123; assay: ELISA, format not described; design: unit not given here

Binder | ELISA_avg
B1 | 5.7
B2 | 6.6
B3 | 4
B4 | 5.6
B5 | 3.9
B6 | 4
B7 | 4.7
B8 | 4.3
B9 | 3.9
B10 | 3.3
B11 | 3.2
B12 | 5.6
B13 | 6.5
B14 | 3.7
B15 | 6.9
B16 | 8.9
B17 | 3
B18 | 5.1
B19 | 3.3
B20 | 3
B21 | 4.6
B22 | 4
B23 | 8.7
B24 | 3.9

Binder | ELISA_avg
B25 | 4.1
B26 | 9.2
B27 | 4.2
B28 | 3.7
B29 | 4.3
B30 | 4.2
B31 | 4.2
B32 | 6.2
B33 | 4.2
B34 | 4.5
B35 | 5.1
B36 | 11.5
B37 | 9
B38 | 3.4
B39 | 4
B40 | 4.3
B41 | 3.1
B42 | 12.2
B43 | 4.9
B44 | 3.3
B45 | 5.8
B46 | 3.3
B47 | 6.5
B48 | 7.7
